Data reported in patent publication US20140274782A1, “AFFINITY REAGENTS AND METHODS FOR DETECTION, PURIFICATION, AND PROTEOMIC ANALYSIS OF METHYLATED PROTEINS” (The Board of Trustees of the Leland Stanford Junior …, priority 2013, published 2014).

Columns and labels:
3×MBT domain of L3MBTL1 = assay: Triple SILAC pull-down, 3xMBT/3xMBTD355N ratio (cytoplasmic, nuclear and chromatin fractions of 293T cells); type: binding, human; conditions: for 3xMBT/D355N UNC Heavy: experiment with UNC0638 in heavy SILAC media; for 3xMBT/D355N UNC Light: experiment with UNC0638 in light SILAC media; for Protein Ratios 3xMBT/D355N: pull-down by 3xMBT vs 3xMBTD355N;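 on all read-outs here: proteins quantified with MaxQuant, requiring at least two unique peptides and quantification in both label directions, normalized to the mean of proteins from a digested loading control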
G9a and GLP = biological target: T1, G9a and GLP (Homo sapiens, UniProt Q96KQ7+Q9H9B1); assay: Triple SILAC pull-down after UNC0638 treatment of 293T cells, DMSO/UNC0638 ratio of protein captured by 3×MBT; type: cell-based; conditions: for Relative to UNC0638 UNC Heavy: UNC0638 in heavy SILAC media; for Relative to UNC0638 UNC Light: UNC0638 in light SILAC media; for Relative to UNC0638 Average: average of UNC Light and UNC Heavy experiments; for Protein Ratios DMSO/UNC0638: SILAC ratio of protein captured by 3xMBT, 293T cells treated 24 hours with UNC0638 at 2.5 μM or DMSO;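 on all read-outs here: mass spectrometry (Q-Exactive) SILAC quantitation, DMSO/UNC0638 ratio computed after subtracting 3×MBTD355N mutant pull-down background, only proteins with at least twofold 3×MBT over mutant signal considered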
T1 construct: endogenous in cells; host or cells: HEK 293T
T1 sequence (Q96KQ7 2-1210 limits assumed): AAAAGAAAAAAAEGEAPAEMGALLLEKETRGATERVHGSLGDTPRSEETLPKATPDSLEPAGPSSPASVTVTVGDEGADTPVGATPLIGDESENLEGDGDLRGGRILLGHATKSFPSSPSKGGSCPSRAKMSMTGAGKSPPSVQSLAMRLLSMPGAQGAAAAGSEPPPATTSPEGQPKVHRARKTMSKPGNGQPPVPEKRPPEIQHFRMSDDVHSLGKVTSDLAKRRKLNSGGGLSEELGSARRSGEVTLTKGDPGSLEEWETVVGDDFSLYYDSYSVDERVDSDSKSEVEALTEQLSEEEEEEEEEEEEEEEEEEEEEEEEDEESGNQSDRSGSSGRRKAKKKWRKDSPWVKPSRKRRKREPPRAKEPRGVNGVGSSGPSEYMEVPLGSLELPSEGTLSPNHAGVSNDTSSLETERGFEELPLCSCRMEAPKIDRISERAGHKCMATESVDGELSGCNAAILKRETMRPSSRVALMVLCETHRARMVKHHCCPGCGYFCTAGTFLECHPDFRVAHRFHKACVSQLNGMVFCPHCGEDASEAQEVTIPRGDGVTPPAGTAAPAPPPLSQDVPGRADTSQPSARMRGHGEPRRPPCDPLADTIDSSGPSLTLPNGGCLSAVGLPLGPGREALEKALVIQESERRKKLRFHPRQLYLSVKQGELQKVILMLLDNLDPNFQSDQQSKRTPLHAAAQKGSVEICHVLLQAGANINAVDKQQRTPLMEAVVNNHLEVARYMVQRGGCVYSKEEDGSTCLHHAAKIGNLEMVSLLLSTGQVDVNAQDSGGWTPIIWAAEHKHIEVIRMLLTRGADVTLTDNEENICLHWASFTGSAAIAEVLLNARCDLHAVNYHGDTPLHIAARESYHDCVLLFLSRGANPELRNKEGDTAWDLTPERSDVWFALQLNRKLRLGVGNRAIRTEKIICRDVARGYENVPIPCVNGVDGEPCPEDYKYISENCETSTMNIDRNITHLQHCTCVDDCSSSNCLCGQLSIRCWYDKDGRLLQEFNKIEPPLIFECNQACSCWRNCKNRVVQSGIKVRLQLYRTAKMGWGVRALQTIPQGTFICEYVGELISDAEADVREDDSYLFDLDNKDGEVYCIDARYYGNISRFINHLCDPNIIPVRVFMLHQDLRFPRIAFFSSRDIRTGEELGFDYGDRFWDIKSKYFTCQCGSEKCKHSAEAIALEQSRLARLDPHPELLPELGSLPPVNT
T1 sequence (Q9H9B1 2-1298 limits assumed): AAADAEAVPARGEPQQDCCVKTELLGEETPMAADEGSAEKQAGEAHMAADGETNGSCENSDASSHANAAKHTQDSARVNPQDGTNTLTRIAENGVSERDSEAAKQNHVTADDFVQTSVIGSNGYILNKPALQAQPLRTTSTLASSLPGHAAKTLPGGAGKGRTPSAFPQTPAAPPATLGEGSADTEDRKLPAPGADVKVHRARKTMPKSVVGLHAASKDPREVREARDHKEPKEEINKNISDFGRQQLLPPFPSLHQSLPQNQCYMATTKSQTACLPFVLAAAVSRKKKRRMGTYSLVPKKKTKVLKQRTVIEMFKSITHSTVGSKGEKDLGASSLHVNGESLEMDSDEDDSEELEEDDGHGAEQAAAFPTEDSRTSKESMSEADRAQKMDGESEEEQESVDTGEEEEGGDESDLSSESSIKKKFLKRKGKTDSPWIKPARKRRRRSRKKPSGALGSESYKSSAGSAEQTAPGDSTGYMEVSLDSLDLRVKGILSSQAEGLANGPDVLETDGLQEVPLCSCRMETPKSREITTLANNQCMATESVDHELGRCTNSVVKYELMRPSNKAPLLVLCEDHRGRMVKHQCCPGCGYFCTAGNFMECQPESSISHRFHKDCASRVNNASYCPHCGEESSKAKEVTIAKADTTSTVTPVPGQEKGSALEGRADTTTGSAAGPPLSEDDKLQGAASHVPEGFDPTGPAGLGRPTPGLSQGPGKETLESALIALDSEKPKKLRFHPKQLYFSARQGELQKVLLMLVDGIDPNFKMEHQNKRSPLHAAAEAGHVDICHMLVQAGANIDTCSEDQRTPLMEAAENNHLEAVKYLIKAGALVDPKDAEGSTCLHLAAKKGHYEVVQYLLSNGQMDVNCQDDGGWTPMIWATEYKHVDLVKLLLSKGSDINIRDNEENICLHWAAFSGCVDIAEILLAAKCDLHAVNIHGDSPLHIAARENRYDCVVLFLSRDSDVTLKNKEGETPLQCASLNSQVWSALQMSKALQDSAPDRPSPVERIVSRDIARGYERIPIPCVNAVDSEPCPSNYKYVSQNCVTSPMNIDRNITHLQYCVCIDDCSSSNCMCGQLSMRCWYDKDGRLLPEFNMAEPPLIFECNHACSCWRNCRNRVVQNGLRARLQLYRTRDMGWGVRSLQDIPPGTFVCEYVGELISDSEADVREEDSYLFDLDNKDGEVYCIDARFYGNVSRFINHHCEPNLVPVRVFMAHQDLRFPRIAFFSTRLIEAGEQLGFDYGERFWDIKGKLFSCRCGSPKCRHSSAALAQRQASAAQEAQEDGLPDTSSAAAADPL
Description: For UNC0638 treatments cells were treated for 24 hours with UNC0638 at 2.5 μM or DMSO vehicle control. One experiment treated cells in light media with UNC0638, the other treated cells in heavy media. Both experiments included cells in medium media treated with DMSO for negative control pull-down with 3×MBTD355N.
UNC0638 treatment experiments used a Q-Exactive mass spectrometer (ThermoFisher Scientific). A 25 cm HPLC column with 3 μm Reliasil (Orochem) was used to separate peptides over a 4 hour gradient from 0 to 75% acetonitrile. Ions were generated using a custom nanospray source flowing at 250 nL/minute. Mass spectrometry settings were 70,000 MS1 resolution, data dependent selection of up to 20 precursor ions per cycle, dynamic exclusion of 30 seconds and isolation window of 2 m/z.
For UNC0638 experiments the treated vs. untreated ratio was determined by subtracting the value from 3×MBTD355N prior to dividing values from the light and heavy channels. Only proteins showing a two-fold signal to background ratio (3×MBT/3×MBTD355N) were evaluated as potential G9a/GLP substrates.

[1] = SILAC ratio, pull-down 3xMBT vs 3xMBTD355N
[2] = SILAC ratio DMSO/UNC0638 of protein pulled down with 3xMBT
[3] = SILAC ratio 3xMBT vs 3xMBTD355N pull-down, 293T cells, all values in log base 2
[4] = SILAC ratio DMSO relative to UNC0638, pull-down with 3xMBT, all values in log base 2

Substance	3xMBT/D355N UNC Heavy (3×MBT domain of L3MBTL1; [1]) [log base 2]	3xMBT/D355N UNC Light (3×MBT domain of L3MBTL1; [1]) [log base 2]	Relative to UNC0638 UNC Heavy (G9a and GLP; [2]) [log base 2]	Relative to UNC0638 UNC Light (G9a and GLP; [2]) [log base 2]	Relative to UNC0638 Average (G9a and GLP) [log base 2]	3xMBT/D355N UNC Heavy (3×MBT domain of L3MBTL1; [3]) [log base 2]	3xMBT/D355N UNC Light (3×MBT domain of L3MBTL1; [3]) [log base 2]	Relative to UNC0638 UNC Heavy (G9a and GLP; [4]) [log base 2]	Relative to UNC0638 UNC Light (G9a and GLP; [4]) [log base 2]	Relative to UNC0638 Average (G9a and GLP; all values in log base 2) [log base 2]	Candidate G9a/GLP target (G9a and GLP; reduced association with 3xMBT after UNC0638 treatment)	Protein Ratios 3xMBT/D355N (3×MBT domain of L3MBTL1; SILAC ratio, 293T cells)	Protein Ratios DMSO/UNC0638 (G9a and GLP)
KHDRBS1	2.03	2.82	0.54	0.19	0.37	–	–	–	–	–	–	–	–
TOP2A	2.56	2.96	0.42	−0.18	0.12	–	–	–	–	–	–	–	–
VRK1	2.10	2.56	0.21	0.03	0.12	–	–	–	–	–	–	–	–
SRSF3	2.63	2.55	0.25	0.23	0.24	–	–	–	–	–	–	–	–
SNRPA	4.73	5.10	0.16	0.11	0.14	–	–	–	–	–	–	–	–
METTL3	–	–	–	–	–	3.18	−0.51	0.04	−1.45	−0.70	–	–	–
CAMK2D	1.96	2.82	0.26	0.27	0.27	–	–	–	–	–	–	–	–
SMARCA5	2.49	2.61	0.47	0.32	0.39	–	–	–	–	–	✓	–	–
EFTUD2	1.98	2.07	0.36	0.33	0.34	–	–	–	–	–	–	–	–
DNA-binding protein A	–	–	–	–	–	–	–	–	–	–	–	11.1	1.4
RPTOR	–	–	–	–	–	1.86	1.58	0.54	−0.81	−0.14	–	–	–
DNMT1	1.70	2.02	0.46	−0.19	0.13	–	–	–	–	–	–	–	–
DHX9	3.27	3.53	0.08	0.28	0.18	–	–	–	–	–	–	–	–
DDX6	3.18	3.05	0.14	0.22	0.18	–	–	–	–	–	–	–	–
DNA-dependent protein kinase catalytic subunit	–	–	–	–	–	–	–	–	–	–	–	4.5	1.5
HNRNPU	2.16	2.39	0.22	0.28	0.25	–	–	–	–	–	–	–	–
MCTS1	2.76	2.56	0.04	0.20	0.12	–	–	–	–	–	–	–	–
FERMT2	–	–	–	–	–	3.33	1.42	−1.93	−0.07	−1.00	–	–	–
